The text below walks through data of article PMC3936728.

Series [1] has as its target T1, MepR WT (Staphylococcus aureus, UniProt Q5Y812 1-139).
T1 sequence: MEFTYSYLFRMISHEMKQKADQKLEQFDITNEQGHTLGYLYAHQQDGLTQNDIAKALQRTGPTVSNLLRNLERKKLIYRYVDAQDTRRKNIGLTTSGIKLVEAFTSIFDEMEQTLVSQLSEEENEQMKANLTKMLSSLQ
Nature of the series: ITC. On the technique in general: ITC needs no label: the signal is the heat of the interaction.

Series [2] has as its target T2, MepR (crystallization) (Staphylococcus aureus, UniProt Q5Y812 1-139).
T2 sequence: T1 sequence
Nature of the series: crystal structure.

B1: 27 bp mepR, scrambled recognition helix region (dsDNA)
DNA 1: TATTTACTATGTGTATCTAGGAAATGG
DNA 2: CCATTTCCTAGATACACATAGTAAATA
Turning to B1, the binding result in series [1] is given as “no binding”.

B2: 24 bp palindromic mepR operator (dsDNA)
DNA 1: ATTTAGTTAGATATCTAACTAAAT
DNA 2: ATTTAGTTAGATATCTAACTAAAT
As for B2, the binding result in series [2] is on record as “binds”.

B3: 14 bp mepR site (dsDNA)
DNA 1: GTTAGACATCTAAC
DNA 2: GTTAGATGTCTAAC
As to B3, in series [1], the binding result was “no binding”.
